Data as given in patent US20030049246A1 (published 2003).

Target: T1, Gli3C′ΔXhoI (Myc-tagged C-terminal deleted XhoI Gli 3 truncate) (human, UniProt P10071 1-547)
T1 construct: also called Gli3C'XhoI
T1 sequence: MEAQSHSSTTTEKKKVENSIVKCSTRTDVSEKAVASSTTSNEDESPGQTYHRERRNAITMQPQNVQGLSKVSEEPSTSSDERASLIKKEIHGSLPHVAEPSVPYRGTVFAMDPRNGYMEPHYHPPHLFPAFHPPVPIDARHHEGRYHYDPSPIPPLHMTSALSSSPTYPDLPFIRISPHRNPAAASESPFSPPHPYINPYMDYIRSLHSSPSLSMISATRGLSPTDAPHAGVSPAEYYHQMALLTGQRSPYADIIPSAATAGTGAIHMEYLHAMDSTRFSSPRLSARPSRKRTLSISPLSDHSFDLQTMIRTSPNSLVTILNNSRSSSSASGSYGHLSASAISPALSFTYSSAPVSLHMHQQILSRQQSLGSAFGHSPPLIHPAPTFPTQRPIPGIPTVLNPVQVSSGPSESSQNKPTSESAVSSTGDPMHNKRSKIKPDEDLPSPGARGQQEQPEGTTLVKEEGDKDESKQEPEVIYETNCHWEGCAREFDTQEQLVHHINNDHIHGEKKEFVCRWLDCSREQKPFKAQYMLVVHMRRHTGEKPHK
Assay: co-immunoprecipitation (anti-Flag IP, anti-Myc blot), transfected cells
Protocol: Immunoprecipitation and immunoblotting: The assay was performed as previously described ( Liu et al, 1997, Genes Dev. 11:3157-3167). RIB/L17 or COS1 cells were cotransfected with Myc-tagged full-length or deletion derivatives of Gli3 or Gli1 along with a Flag-tagged Smad construct by the DEAE-dextran method. BMP or TGFP stimulation was by cotransfection of an activated BMP or TGFβ receptor and treatment with BMP (2 nM) or TGFβ (500 pM) for 1 hour. Cells were lysed in TNE buffer (10 mM Tris (pH7.8), 150 mM NaCl, 1 mM EDTA, 1% NP40) in the presence of protease inhibitors. Immunoprecipitation was performed by incubation with the M2 anti-Flag antibody (Eastman Kodak) for 1 hour. Immunoprecipitates were separated in an 8% SDS-PAGE and transferred to a PVDF membrane. Inmmunoblotting was carried out by using the 9E10 anti-Myc antibody (ascites), followed by incubation with HRP-conjugated goat anti-mouse antibodies and detected by chemiluminescence (Amersham).

- binding result: no binding
B1: Flag-Smad1 (other, UniProt Q15797 1-465, looked up)
chain: MNVTSLFSFTSPAVKRLLGWKQGDEEEKWAEKAVDALVKKLKKKKGAMEELEKALSCPGQPSNCVTIPRSLDGRLQVSHRKGLPHVIYCRVWRWPDLQSHHELKPLECCEFPFGSKQKEVCINPYHYKRVESPVLPPVLVPRHSEYNPQHSLLAQFRNLGQNEPHMPLNATFPDSFQQPNSHPFPHSPNSSYPNSPGSSSSTYPHSPTSSDPGSPFQMPADTPPPAYLPPEDPMTQDGSQPMDTNMMAPPLPSEINRGDVQAVAYEEPKHWCSIVYYELNNRVGEAFHASSTSVLVDGFTDPSNNKNRFCLGLLSNVNRNSTIENTRRHIGKGVHLYYVGGEVYAECLSDSSIFVQSRNCNYHHGFHPTTVCKIPSGCSLKIFNNQEFAQLLAQSVNHGFETVYELTKMCTIRMSFVKGWGAEYHRQDVTSTPCWIEIHLHGPLQWLDKVLTQMGSPHNPISSVS
notes: not shown: Flag tag
